Results published in US20240101645A1 (HENRY M JACKSON FOUNDATION FOR THE ADVANCEMENT OF MILITARY …, published 2024).

Target: SARS-CoV-1 S on pseudovirions (Sino 1-11, 28 amino acid C-terminal deletion) (SARS-CoV-1, UniProt P59594 14-1227)
Assay: cell-based or functional assay

B1: COV_2063 (antibody, V domains shown)
VH: EVQLVESGGGVVQPGRSLRLSCAASGFTFSSYGMHWVRQAPGKGLEWVAVIWYDGSNKYYADSVKGRFTISRDNSKNTLYLQMNSLRAEDTAVYYCARGPLGSNYFNYDAFDIWGQGTMVTVSS
VL: DVVMTQSPLSLPVTLGQPASISCRSSQSLEYSDGNTYLNWFQQRPGQSPRRLIYKVSKRDSGVPDRFSGSGSGSDFTLKISRVEAEDVGVYYCMQGTHWPLTFGGGTKVEIK
- IC50, SARS-CoV-1 pseudotyped neutralization: 0.095 µg/mL
